Data as given in patent US20240254201A1 (ACADEMY OF MILITARY MEDICAL SCIENCE PLA, published 2024).

Key:
GPdMucin [1] = biological target: T1, GPdMucin (Ebola virus (EBOV), UniProt Q05320 33-632); test: SPR, BIACORE 3000; 2G1 captured by anti-human IgG Fc on CM5, GPdMucin as analyte
T1 construct: domain: GPdMucin; also called GPΔMuc; GPdmucin-His6

GPdMucin [2] = biological target: T1, GPdMucin; test: ELISA on coated truncated GP

B1: monoclonal antibody 2G1 (antibody, V domains shown)
VH: EVQLVESGGGLVKRGGSLRLSCVVSGYTFGGYSMHWVRQAPGKGLEWVSGISSSSYYKYYADSVKGRFTISRDNAKNSLYLQMNSLRAEDTAVYYCARDMGYCSGGSCPNFDFWGQGTTVTVSS
VL: DIQMTQSPSSLSASVGDRVTITCRTSQSISNYLNWYQQIPGKAPKLLISTASNLHSGVSSRFSGSGSGTHFTLTISSLQPEDFATYYCQQSYSTPSFGQGTKVEIKR
notes: also called 2G1-WT; wild-type 2G1
For B1, the Kd (GPdMucin [1]) was 734 pM, the koff (GPdMucin [1]) was 3.75e-05 s⁻¹ and the kon (GPdMucin [1]) was 51100 M⁻¹ s⁻¹. The EC50 (GPdMucin [2]) was 3.7 ng/mL.
